This passage reports Kd and stoichiometry N results from publication doi:10.1101/2025.10.21.683802.

Usually pKd stands for the negative decadic logarithm of the Kd, by convention in mol/L. For orientation: stoichiometry N means a count of units in the complex or per binding partner.

pKd: −log10 of the molar value.

Test [1] addresses β2-adrenergic receptor, construct PN1 (monomeric) (UniProt P07550). Nature of the test: BLI; as a14, with AP at 10 μM. (In general: BLI is a label-free optical method that tracks binding on a fibre tip over time.)
Test [2] has as its target β2-adrenergic receptor, construct PN1 (monomeric β2AR) (human) (UniProt P07550). As to the kind of experiment: BLI; as a1, monomeric β2AR with 10 µM AP; 10 µM Iso; apparent kon and koff; KD from equilibrium responses.
The target of test [3] is AP-bound β2AR dimer (construct PN1 with AP-7-168) (UniProt P07550). As to the kind of experiment: SEC; AP-bound dimer with nucleotide-free Gs; peak fractions on SDS-PAGE, ratio of β2AR to Gα bands estimated on gels.
In test [4] the target is β2-adrenergic receptor, construct PN1 (monomeric) (UniProt P07550). As to the kind of experiment: BLI; FLAG-tagged β2AR held through biotinylated anti-FLAG M1 Fab on SA tips with 10 μM Iso; Gs 30 nM to 10 μM with 10 μM GDP and 0.1% BSA; NH buffer, 0.01% LMNG, 0.001% CHS; 30°C; KD from equilibrium responses.

With “heterotrimeric Gs (Gαsβ1γ2) (from UniProt P63092 1-394; P62873 1-340; P59768 1-71) (complex)”, the pKd was 5.77 in test [1], 5.77 in test [2] and 6.02 in test [4]. For the same substance, the stoichiometry N in test [3] is 2 β2AR per Gα.
